How the values were obtained:
[1] = target: B2R-MasR heteromer on cells co-transfected with B2R-CFP and MasR-YFP (UniProt P30411); assay: radioligand binding
[2] = target: Angiotensin-(1-7) Mas receptor fused to enhanced yellow fluorescent protein (UniProt P04201); assay: radioligand binding
Chain of UniProt P04201 (P04201 whole entry, the tested form may be a part): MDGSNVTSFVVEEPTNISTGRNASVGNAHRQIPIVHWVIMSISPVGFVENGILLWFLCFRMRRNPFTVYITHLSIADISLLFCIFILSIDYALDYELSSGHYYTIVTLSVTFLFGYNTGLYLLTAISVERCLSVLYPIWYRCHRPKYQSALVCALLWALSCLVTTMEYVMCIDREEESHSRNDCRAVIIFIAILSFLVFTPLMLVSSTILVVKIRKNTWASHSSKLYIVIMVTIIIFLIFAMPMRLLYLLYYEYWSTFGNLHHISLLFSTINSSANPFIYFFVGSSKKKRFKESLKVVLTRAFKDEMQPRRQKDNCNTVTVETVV

Chain of UniProt P30411 (P30411 whole entry, chain 1 of 2, the tested form may be a part): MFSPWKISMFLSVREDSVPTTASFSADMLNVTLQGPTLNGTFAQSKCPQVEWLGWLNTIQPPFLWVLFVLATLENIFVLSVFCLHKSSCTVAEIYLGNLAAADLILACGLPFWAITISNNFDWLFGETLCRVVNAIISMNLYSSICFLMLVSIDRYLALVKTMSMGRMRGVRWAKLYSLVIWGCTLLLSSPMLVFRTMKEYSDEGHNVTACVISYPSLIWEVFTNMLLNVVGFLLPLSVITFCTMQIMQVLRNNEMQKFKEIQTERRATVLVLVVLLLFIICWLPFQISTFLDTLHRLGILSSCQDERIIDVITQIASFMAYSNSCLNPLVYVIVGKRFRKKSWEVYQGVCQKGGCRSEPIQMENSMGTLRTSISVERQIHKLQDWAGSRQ
Chain of UniProt P30411 (P04201 whole entry, chain 2 of 2, further chain, the tested form may be a part): as the sequence (P04201 whole entry, the tested form may be a part) above

Q: How did the Kd [1] turn out when Angiotensin-(1-7) (peptide) was run?
A: 0.139 nM

Q: What about the Kd [2] of the same substance?
A: 1.15 nM

Reference: article PMC5016258
